Measurements published in paper PMC5888579.

Molecular target: FEN1 (human, UniProt P39748 2-380)
Experiment: smFRET kinetics

FEN1, sequence (P39748 2-380): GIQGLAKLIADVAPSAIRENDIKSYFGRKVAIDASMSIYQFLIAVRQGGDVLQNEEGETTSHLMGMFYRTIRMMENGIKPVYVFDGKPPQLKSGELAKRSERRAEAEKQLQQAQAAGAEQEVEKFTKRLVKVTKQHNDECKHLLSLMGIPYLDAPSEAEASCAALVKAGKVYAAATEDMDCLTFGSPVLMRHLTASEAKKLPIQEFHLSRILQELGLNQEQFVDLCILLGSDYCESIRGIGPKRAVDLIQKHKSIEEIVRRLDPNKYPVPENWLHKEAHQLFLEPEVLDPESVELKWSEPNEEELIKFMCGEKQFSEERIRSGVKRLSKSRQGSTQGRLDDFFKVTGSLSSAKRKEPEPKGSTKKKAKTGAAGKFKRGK

B1: NickInternal (dsDNA)
DNA 1: TGACCGTGTTTGACGGTCGTGAGGAGGAAAGTTCCTCCTACGGCAG
DNA 2: CTGCCGTAGGAGGAACTTTCCTCCTC
DNA 3: ACGACCGTCAAACAACGGTCA
modifications: 5' phosphate at nick; biotin; iCy3 internal in template
For B1, which Kd is on record?
Its Kd is 62 ± 9 nM.
